B1: FGF21: Fibroblast growth factor 21, metabolic regulator produced primarily by the liver, as studied in the cited literature (protein, UniProt Q9NSA1 29-209, looked up)
Fibroblast growth factor 21: HPIPDSSPLLQFGGQVRQRYLYTDDAQQTEAHLEIREDGTVGGAADQSPESLLQLKALKPGVIQILGVKTSRFLCQRPDGALYGSLHFDPEACSFRELLLEDGYNVYQSEAHGLPLHLPGNKSPHRDPAPRGPARFLPLPGLPPALPEPPGILAPQPPDVGSSDPLSMVGPSQGRSPSYAS
B2: FGF-21 (SEQ ID NO: 2): mutated FGF-21 carrying a deletion of amino acids 1-28 of human FGF-21 and an additional glycine at the N-terminus (protein)
chain: GHPIPDSSPLLQFGGQVRQRYLYTDDAQQTEAHLEIREDGTVGGAADQSPESLLQLKALKPGVIQILGVKTSRFLCQRPDGALYGSLHFDPEACSFRELLLEDGYNVYQSEAHGLPLHLPGNKSPHRDPAPRGPARFLPLPGLPPAPPEPPGILAPQPPDVGSSDPLSMVGPSQGRSPSYAS
modifications: G linked to fragment of human FGF21 from H29 to S209
notes: mutated FGF-21 carrying a deletion of amino acids 1-28 of human FGF-21 and an additional glycine at the N-terminus

How the values were obtained:
diabetic rhesus monkeys = settings: 6 weeks; cited from earlier work
mouse 3T3-L1 adipocytes = settings: in the presence and absence of insulin; cited from earlier work
[1] = tested on: ob/ob mice, db/db mice, ZDF rats; settings: cited from earlier work
db/db mice [2] = assay: Fed blood glucose during treatment of db/db mice; format: in vivo, mouse; settings: s.c. once daily (AVE0010 0.05, FGF-21 0.75, combination 0.75+0.05 mg·kg−1·day−1), up to 4 weeks, FIG. 6
Description: (§1) Female db/db mice (BKS.Cg-m +/+ Leprdb/J, age of 6 weeks) were treated with vehicle (PBS), 0.05 mg·kg^−1·day^−1 AVE0010, 0.75 mg·kg^−1·day^−1 recombinant human FGF-21 (SEQ ID NO: 2) or a combined dose of FGF-21 (SEQ ID NO: 2) and AVE0010 (SEQ ID NO:9), (0.75+0.05 mg·kg^−1·day^−1) subcutaneously once daily. Mice were fed ad libitum. Before the first treatment, after one week and 4 weeks blood glucose and HbA1c were measured under fed conditions. After 21 days of treatment an oral glucose tolerance test (OGTT) was initiated. Fasted mice were orally challenged with 2 g·kg^−1 glucose solution and blood glucose was measured at indicated time points.

db/db mice [3] = assay: Oral glucose tolerance test (OGTT) in treated db/db mice; format: in vivo, mouse; settings: after 21 days s.c. once daily (AVE0010 0.05, FGF-21 0.75, combination 0.75+0.05 mg·kg−1·day−1), fasted, 2 g·kg−1 oral glucose, vs vehicle treated obese control, FIG. 5
Description: as §1

[4] = ob/ob and db/db mice and obese ZDF rats

| Molecule | HDL-cholesterol (diabetic rhesus monkeys) | LDL-cholesterol (diabetic rhesus monkeys) | body weight (diabetic rhesus monkeys) | fasting plasma glucose, fructosamine, triglyceride, insulin and glucagone levels (diabetic rhesus monkeys) | hypoglycemia (diabetic rhesus monkeys) | glucose uptake (mouse 3T3-L1 adipocytes) | mitogenicity, hypoglycemia, or weight gain ([1]; any dose tested, diabetic or healthy animals) | food intake or body weight/composition ([1]; diabetic or lean mice and rats, 2 weeks of administration) | fed and fasting blood glucose, triglycerides, and glucagon levels ([1]; ob/ob and db/db mice and 8 week old ZDF rats, dose dependent) | blood glucose and triglycerides [1, 4] | fasting insulin levels [1, 4] | glucose clearance during an oral glucose tolerance test [1, 4] | blood glucose (db/db mice [2]) | glucose tolerance (OGTT) (db/db mice [3]) |
| --- | --- | --- | --- | --- | --- | --- | --- | --- | --- | --- | --- | --- | --- | --- |
| B1 | increased | significantly lowered | slightly but significantly decreased | reduced | not observed | stimulate glucose uptake | did not induce | did not affect | decrease | significantly lowered | decreased | improved |  |  |
| B2 |  |  |  |  |  |  |  |  |  |  |  |  | inhibition of blood glucose increase | small improvement in glucose tolerance |

From patent US20160279199A1, “PHARMACEUTICAL COMPOSITION FOR TREATING A METABOLIC SYNDROME” (Sanofi, priority 2010, published 2016)
